Earlier results as cited in PMC3907174.

Target: RBP (Homo sapiens) (UniProt P02753)

Q: With STRA6 (from UniProt Q9BX79) as the substance, how does the Kd read?
A: 50 nM
